Results: PMC7774954 (2020)
Where no end group is shown, it is not given here. The star is where a group is joined. Biotin = O=C1N[C@H]2[C@H](CS[C@H]2CCCCC(=O)*)N1; TTDS = NCCCOCCOCCOCCCNC(=O)CCC(=O)*

T1: MAST2-1 (human)
T1 chain: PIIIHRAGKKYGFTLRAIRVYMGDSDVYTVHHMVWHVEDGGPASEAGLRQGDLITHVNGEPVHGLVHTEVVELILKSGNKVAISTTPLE

B1: fRSK1 (peptide)
peptide: Fluorescein-KLPSTTL
B2: PTEN_11 (peptide)
peptide: {Biotin-TTDS}-DEDQHTQITKV

Legend:
[1] = biological target: T1, MAST2-1; assay: FP
[2] = biological target: HTRA1-1 (human); assay: FP
[3] = biological target: T1, MAST2-1; assay: FP; competitive FP with fRSK1 tracer
[4] = biological target: HTRA1-1 (human); assay: FP; competitive FP with fRSK1 tracer

Chain of HTRA1-1 (human) (chain, as listed by the source): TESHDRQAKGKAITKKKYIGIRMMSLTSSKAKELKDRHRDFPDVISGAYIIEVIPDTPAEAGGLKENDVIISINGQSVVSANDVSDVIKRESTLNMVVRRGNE

Row | Binder | Kd [1] | Kd [2] | Kd [3] | Kd [4]
1 | B1 | 6.87 µM | 64.8 µM |  | 
2 | B2 |  |  | 3.14 µM | 45.1 µM
